Common to all, as to experiment: BLI
In general terms: Biolayer interferometry detects binding as a change in optical thickness at a sensor tip.

Test [1] deals with fXa L23 loop-swap chimera (human).
Test [2] addresses wild-type human factor Xa (human).
Test [3] concerns the target fXa L23 chimera with the full EGF2 domain swap (human | Hoplocephalus stephensii).
Test [4] has as its target fXa variant M13 (7 EGF2 and 6 SP mutations) (human).
Test [5] has as its target M17 fXa variant (human).
The target of test [6] is Hopsarin D (Hoplocephalus stephensii).
Test [7] deals with fXa L2 loop-swap chimera (human).
Test [8] has as its target fXa variant M7 (7 EGF2 mutations) (human).
Test [9] has as its target fXa L1 loop-swap chimera (human).
Test [10] addresses fXa L123/EGF2 chimera (M45) (human | Hoplocephalus stephensii).
In test [11] the target is fXa L123 loop-swap chimera (human).
In test [12] the target is fXa SP chimera (entire HopD SP domain swapped into human fXa) (human | Hoplocephalus stephensii).
Test [13] addresses fXa L3 loop-swap chimera (human).

Regarding “B-domainless human fV (from UniProt P12259 29-2224) (natural protein)”, the Kd – broadly, the free concentration of one partner at which half of the binding sites on the other are occupied at equilibrium, for simple one-to-one binding – in test [1] turned out to be 1120 nM; in test [2], 1380 nM; in test [3] it was 369 nM; in test [4] it was 48 nM; in [5] it was 17 nM; in test [6] it was 18 nM. Besides, the Kd was determined as 1130 nM in test [7]; 78 nM in test [8]; 532 nM in test [9]; 43 nM in test [10]; 608 nM in test [11]; 400 nM in test [12]. In [13], this substance registered an equilibrium dissociation constant (Kd) of 905 nM.

Values taken from publication doi:10.1101/2025.04.16.649061.
